This is an account of results in paper PMC6105727, “Architecture of the native major royal jelly protein 1 oligomer” (Nature Communications, 2018).

For data set [1], the target named is T1, MRJP1 oligomer (MRJP1_4-apisimin4-24-methylenecholesterol8 complex) (Apis mellifera, UniProt O18330+Q8ISL8).
T1 construct: native complex purified from royal jelly; mature chains without signal peptides; partly deglycosylated with PNGase F (NAG left at Asn144); modelled MRJP1 23-432 and 28-432, apisimin 37-77 and 36-78; 254 kDa by AUC
T1 sequence (O18330 20-432): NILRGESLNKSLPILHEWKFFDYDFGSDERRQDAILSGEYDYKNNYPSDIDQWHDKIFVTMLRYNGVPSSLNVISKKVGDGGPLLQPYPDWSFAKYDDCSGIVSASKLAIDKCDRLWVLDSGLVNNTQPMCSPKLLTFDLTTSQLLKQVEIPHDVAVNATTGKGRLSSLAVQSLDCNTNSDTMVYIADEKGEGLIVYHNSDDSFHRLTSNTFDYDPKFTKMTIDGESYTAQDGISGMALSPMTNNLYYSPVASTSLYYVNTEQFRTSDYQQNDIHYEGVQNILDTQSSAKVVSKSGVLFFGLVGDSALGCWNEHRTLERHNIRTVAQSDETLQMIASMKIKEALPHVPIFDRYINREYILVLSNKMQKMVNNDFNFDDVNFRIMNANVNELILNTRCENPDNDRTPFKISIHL
T1 sequence (Q8ISL8 25-78): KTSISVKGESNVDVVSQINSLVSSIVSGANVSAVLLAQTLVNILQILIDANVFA
The data set can be described thus: X-ray crystal structure at […] Å; co-purified ligand identified by GC-MS and NMR. The data set is classed as binding. Conditions: co-purified natural ligand; eight per complex (four per asymmetric unit); inner two contact MRJP1 and apisimin, outer two apisimin only; crystals at pH 8.5.

Data set [2] concerns the target T2, Major royal jelly protein 1 (Apis mellifera, UniProt O18330 20-432, N-acetylglucosamine linked to Asn144 (seen in the crystal after partial deglycosylation); native glycoprotein).
T2 construct: Major royal jelly protein 1 (MRJP1) of the honeybee Apis mellifera; mature protein without N-terminal signal peptide; modelled residues 23-432 (protomer A) and 28-432 (protomer B); Native protein; occurs in royal jelly as a monomer fraction and as an oligomer with apisimin and 24-methylenecholesterol; also called MRJP1; royalactin (the monomer); source: purified from royal jelly (ultrafiltration, …)
T2 sequence (looked up): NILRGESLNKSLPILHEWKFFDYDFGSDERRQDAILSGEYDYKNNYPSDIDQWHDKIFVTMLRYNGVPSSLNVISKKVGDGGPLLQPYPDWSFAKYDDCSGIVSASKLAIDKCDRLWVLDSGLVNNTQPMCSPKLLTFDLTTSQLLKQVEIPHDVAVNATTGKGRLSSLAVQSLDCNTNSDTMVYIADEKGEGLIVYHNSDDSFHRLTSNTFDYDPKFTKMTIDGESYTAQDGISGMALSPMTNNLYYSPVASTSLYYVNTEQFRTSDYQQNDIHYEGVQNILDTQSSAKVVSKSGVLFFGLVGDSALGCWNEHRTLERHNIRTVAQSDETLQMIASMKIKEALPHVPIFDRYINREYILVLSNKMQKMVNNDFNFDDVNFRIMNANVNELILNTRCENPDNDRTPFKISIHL
The data set can be described thus: SEC; gel filtration of royal jelly collected from the nectar of different plants and from different honeybee species (Supplementary Fig. 10A, B).

Data set [3] has as its target T2, Major royal jelly protein 1. The data set can be described thus: crystal structure; native MRJP1 oligomer from royal jelly, deglycosylated with PNGase F; hanging drop, 0.1 M Tris pH 8.5, 2.0 M ammonium phosphate; 2.65 Å, space group H32.
The target is the same in data set [4]. The data set is described as follows: SEC + other: SAXS; purified native MRJP1 oligomer at near-neutral pH; SAXS in 20 mM sodium phosphate pH 8, 150 mM NaCl, 0.1-10 mg/mL.
Data set [5] concerns the target Major royal jelly protein 1 of Apis cerana (Apis cerana). The data set can be described thus: SEC; gel filtration of royal jelly collected from the nectar of different plants and from different honeybee species (Supplementary Fig. 10A, B).
Data set [6] deals with the molecule itself. The data set is described as follows: crystal structure; native MRJP1 oligomer from royal jelly, deglycosylated with PNGase F; hanging drop, 0.1 M Tris pH 8.5, 2.0 M ammonium phosphate; 2.65 Å, space group H32.

For `C=C(CC[C@@H](C)[C@H]1CC[C@H]2[C@@H]3CC=C4C[C@@H](O)CC[C@]4(C)[C@H]3CC[C@]12C)C(C)C` [Osl, 24-methylenecholesterol], the “X-ray crystal structure at 2.65 Å; co-purified ligand identified by GC-MS and NM” value in data set [1] is “The asymmetric unit contains two MRJP1, two apisimin, four unexpected 24-methylenecholesterol (ostreasterol, Osl)”.
For the molecule “Major royal jelly protein 1 (from UniProt O18330 20-432) (natural protein)”, the stoichiometry N in data set [2], in data set [3] and in data set [4] was 4 each time.
As for “Major royal jelly protein 1 of Apis cerana (natural protein)”, the stoichiometry N (usually a count of units in the complex or per binding partner) in data set [5] worked out at 4.

B1: apisimin (peptide, UniProt Q8ISL8 25-78, looked up)
chain: KTSISVKGESNVDVVSQINSLVSSIVSGANVSAVLLAQTLVNILQILIDANVFA
notes: Apisimin, serine-valine-rich peptide of the honeybee; mature protein without N-terminal signal peptide; modelled residues 37-77 (protomer C) and 36-78 (protomer D); source: co-purified with the native MRJP1 oligomer from royal jelly
As to B1, the binding result in data set [6] and in data set [3] (both partners purified) was “binds” each time.
